Measured values from the nanobody polyreactivity screen of Harvey et al. (2022).

assay: yeast display, Sf9 membrane polyspecificity reagent, FACS + sequencing; frameworks hold sequencing errors
Procedure, shortened: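 A synthetic nanobody library was expressed on Saccharomyces cerevisiae BJ5465 by galactose induction for 36–48 hours. The library was stained for 1 hour at 4 °C with 10% biotinylated, detergent-solubilized Sf9 membrane reagent and enriched with streptavidin microbeads before FACS. Low and high (top ~1%) gates were set on anti-HA fluorescence for expression and streptavidin fluorescence for reagent binding, and each polyreactivity label reflects the gate of origin.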

Sequence | polyreactivity (PSR sort gate)
QVQLVESGGCLVQAGGSLRLSCAASGFTFSRYNMGWYRQAPGKESELVATISWSGSRTYYADSVKGRFTISRDNAKNTVYLQINSLKPDDTAFYYCNFAPHRQVFYTGQYDYWGQGTQVTVSS | high polyreactivity
QVQLVESGGCLVQAGGSLRLSCAASGFTFWRNVMGWYRQAPGKERELVAVISRGGSTNYADSVKGRFTISRDNAMNTVYLQMNSLKPEDTAVYYCAKYARGPSKVDYWGQGTQVTVSS | high polyreactivity
QVQLVESGGCLVQAGGSLRLSCAASGGTFHRYAMGGYRQAPGKERELVAAISGSGASTYYADSVKGRFTISRDNAKNTVYLQMNSLKPEDTAVYYCNAYSYPYWYRYYYWGQGTQVTVSS | high polyreactivity
QVQLVESGGCLVQAGGSLRLSCAASGGTFSRNAMGWYRQAPGKERELVAAINSSGVSTSYAYSVKGRFTISRDNEKNTVYLQMNSLKPEDTAFYYCAAETSSAEVDYWGQGTQVTVSS | low polyreactivity
QVQLVESGGCLVQAGGSLRLSCAASGITFRYYAMGWYRQAPGKERELVATISYSGGTTYYAESVKGRFTISRDNAKNTVYLQMNSLKPEDTAVYYCKAVYRYKYGYRDYDYWGQGSQVTVSS | high polyreactivity
QVQLVESGGCLVQAGGSLRLSCAASGITFVSNVMGWYRQATGKEREFVAAITGRGDTTYADSVKGRFTISRDNAKNTVYLQMNSLKPEDTAVYYCAAEYSVPYRGWDGYEYWGQGTQVTVSS | low polyreactivity
QVQLVESGGCLVQAGGSLRLSCAASGLTFGSYGMGWYRQAPGKERELVAAITATGGSTYYADSVKGRFTISRDNAKNTVYLQMNSLKPEDTAVYYCAATRRSKVWLYGYWGQGTQVTVSS | high polyreactivity
QVQLVESGGCLVQAGGSLRLSCAASGLTFNKNAMGWYRQAPGKEREFVAAITRRGGSTYYADSVKGRFTISRDNAKNTVYLQMNSLKPEDTAVYYCAVYPASVNPYHYDYWGQGTQVTVSS | high polyreactivity
QVQLVESGGCLVQAGGSLRLSCAASGNIIVGNDMGWYRQAPGKERELGAAISSGDTTSYADSVKGRFTISRDNAKNTVFLQMISLKPEDTAVYYCAAGFTYPYDYWGQGTQVTVSS | low polyreactivity
QVQLVESGGCLVQAGGSLRLSCAASGRIFDRNAMGWYRQAPGKERELVARIDPGDDTNYADSVKGRFTISRDNAKNTVYLQMNSLKPEDTAVYYCATDPDYVLYRTAYYEYDYWGQGTQVTVSS | low polyreactivity
QVQLVESGGCLVQAGGSLRLSCAASGRIFFLYAMGWYRQAPGKERELVAAITWSADGTYYADSVKGRFTISRDNAKNTVYLQMNSLKPEDTAVYYCNADAYTTASSYNWWYYYWGQGTQVTVSS | low polyreactivity
QVQLVESGGCLVQAGGSLRLSCAASGRIFTTNAMGWYRQAPGKERELVAAITYSGGTTYYADSVKGRFTISRDNAKKTVYLQMNSLKPEDTAVYYCAADVKFSTPYDYWGQGTQVTVSS | low polyreactivity
QVQLVESGGCLVQAGGSLRLSCAASGRTFIGYAMGWYRQAPGKERELVAAISSTGGSTYYADSVKGRFTISRDNAKNTVYLQMNSLKPEDTAVYYCATDAARPPRTPDISDVSNFDYWGQGTQVTVSS | low polyreactivity
QVQLVESGGCLVQAGGSLRLSCAASGRTFRGYAMGWYRQAPGKERELVARISVSGGSTYYADSVKGRFTISRDNAKNTVYLQMNSLTPDDTAVYYCNARPYTYWRSQYDYWGQGTQVTVSS | high polyreactivity
QVQLVESGGCLVQAGGSLRLSCAASGRTLYRNAMGWYRPAPGKERELVARITWSGASTYYADSVKGRFTISRDNAKNTVYLQMNSLKPEDTAVYYCAAQYLSRRYGPYYTYNYWGQGTQVTVSS | high polyreactivity
QVQLVESGGCLVQAGGSLRLSCAASGRTYVVNAMGWYRHAPGKESELVAAITTGGSTYYADSVKGRFTISRENAKYTVYLQMNSLKPEDTAVYYCAADIYLYYIFDYWVDYDYWGQCTQVTVSS | high polyreactivity
QVQLVESGGCLVQAGGSLRLSCAASGSIFDRYAMGWYRQAPGKERGLVAAISSSGGSTYYADSVKGRFTISRDNAKNTVYLQMNSLKPEDTAVYYCAAEYYASPYYWSYDYWGQGTQVTVSS | high polyreactivity
QVQLVESGGCLVQAGGSLRLSCAASGSIFIYYAMGWYRQAPGKERELVATISVRGGSTYYADSVKGRFTISRDNAKNTVYLQMNSLKPEDTAVYYCNAVTSGTTKSAYDYWGQGTQVTVSS | high polyreactivity
QVQLVESGGCLVQAGGSLRLSCAASGSIFTKYTMGWYRQAPGRERELVAAITLRGTSTYYADSVKGRFTISRDIAKNTVYLQMNSLKPEDTAVYYCNKLYSWVVAYDYWGQGTQVTVSS | high polyreactivity
QVQLVESGGCLVQAGGSLRLSCAASGSIFTRYAMGWYRQAPGKERELVADIRWGGGDTYYADSVKGRFTISRDNAKNTVYLQMNSLKPEDTAVYYCNADFGAPNTGRPEVQNSDEFGYWGQGTQVTVSS | low polyreactivity
QVQLVESGGCLVQAGGSLRLSCAASGSIFWSYSMGWYRQAPGKERELVAAISSGGSTNYADSVKGRFTISRDNAKNTVYLQMNSLKPEDTAVYYCSARFYTTSVRRKRYDYWGQGTQVTVSS | high polyreactivity
QVQLVESGGCLVQAGGSLRLSCAASGSIFYYYAMGWYRQAPGKERELVADISISGGSTYYADSVKGRFTISRDNAKNTVYLQMNSLKPEDTAVYYCAATDYLWEPTVSNWGYTFDSWGQGTQVTVSS | low polyreactivity

Sequence | polyreactivity (PSR sort gate)
QVQLVESGGCLVQAGGSLRLSCAASGSISTNYAMGWYRQAPGKERELVAAISDSSGSTYYADSVKGRFTISRDNAKNTVYLQMNSLKPVDTAVYYCNADSQGGRDVHYDYEYYYWGQGTQVTVSS | low polyreactivity
QVQLVESGGCLVQAGGSLRLSCAASGSSFSRYTMGWYSQAPGKERELVAVISDSSGRTYYADSVKGRFTISRDTAKNTVYLQMNSLKPEDTAVYYCAAEYSDIYEYCGQGTQVTVSS | low polyreactivity
QVQLVESGGCLVQAGGSLRLSCAASGSTFDGNAMGWYRQAPGKERELVATINSGSSTTYADSVKGRFTISRDNAKNTVYLQMNSLKPEDTAVYYCNVDSGSDSLVYSVRYNYWGQGTQVTVSS | low polyreactivity
QVQLVESGGCLVQAGGSLRLSCAASGSTFIDYAMGWYRQAPGKERELVAAITNGGNTKYADSVKGRFTISRDNAKNTVYLQMNSLKPEDTAVYYCAREPSIFTPSYDYWGQGTQVTVSS | low polyreactivity
QVQLVESGGCLVQAGGSLRLSCAASGSTFLINAMGWYRQAPGKEREFVASIRYRGATTYADSVKGRFTISRDNAKNTVYLQMNTLKPEDTAVYYCAASIWLRYHWGYDYWGQGTQVTVSS | high polyreactivity
QVQLVESGGCLVQAGGSLRLSCAASGSTFPRYAMGWYRQAPGKERELVATINSGGSTYYADSVKGCFTISRDNAKNTVYLQMNSLKPEDTAVYYCAAGYRWTYTSGTYIRYNYWGQGTQVTVSS | high polyreactivity
QVQLVESGGCLVQAGGSLRLSCAASGSTFSPYAMGWYRQAPGKERELVAGITGRGGRTYYADSVKGRFTISRDNAKNTVYLQMNSLKPEDTAVYYCAAKYYGNKRDLYYWGQGTQVTVSS | low polyreactivity
QVQLVESGGCLVQAGGSLRLSCAASGSTFVHNAMGWYRQAPGKERELVAAISESGGGTYYADSVKGRFTISRDNAKNTVYLQMNSLKPEDTAVYYCAAPPAGENWRDGGGYWGQGTQVTVSS | low polyreactivity
QVQLVESGGCLVQAGGSLRLSCAASGYTFSLNAMGWYRQAPGKERELVAAISYSGGSTYYADSVKGRFTISRDNAKNTVYLQMNSLKPEDTAVYYCAVRRPQYSYYWDFDYWGQGTQLTVSS | high polyreactivity
QVQLVESGGCLVQAGGSLRLSCAATGFIFYPDAKGWYRQAPGTEMELVAVITSGGRTYYADSVKGRFTITRDNAKNTVYLQMNSLKPEDTAVYYCAALYLGLWPTDIFDYWGQGTQVTVSS | low polyreactivity
QVQLVESGGCLVQAGGSLRLSCAAYGSIFGGNAMGWYRQAPRKERELVAAITQSGDRTYYADSVKGRFTISRDNANNTFYFQMNSLKPEDTAVYYSAARSPRKYGSIGYYWGQGTQVTVSS | high polyreactivity
QVQLVESGGCLVQAGGSLRLSCASSGFTIWQNAMGWYRQAPGKERELVAGIRLSGGSTYADSEKGRFTISRDNAKNTVYLQMNSLKPEDTAVYYCAARIAGYYRYRSLRYDYWGQGTQGTVSS | high polyreactivity
QVQLVESGGCLVQAGGSLRLSGAASGSISYRNSMGWYRQAPGKERELVAAISSRGGSTFYADSEKGRFTISRDNAKNTVYLQMNSLKPEDTAVYYCAARGYHRFKNVNYWGQGTQVTVSS | high polyreactivity
QVQLVESGGCLVQAGGSLRLSSAASGSTFRVNAMGWYRQAPGKERELVAAISFSGGSTYYADSVKGRFTISRDNAKNTVYLQMNSLKPEDTAVYYCNVDIYLGGDYYYSRYTWGLDYWGQGTQVTVSS | low polyreactivity
QVQLVESGGCLVQAGGSLSLSCAASGFTFTYYDMGWYRQAPGKERELVAAITRRGGRTYYADSVKGRFTISRDNAKNTVYLQMNSLKPEDTAVYYCNADEYGGSTGRKGRYNYWGQGTQVTVSS | low polyreactivity
QVQLVESGGCLVQAGGSPRLSCAASGSILTLYAMGWYRQAPGKERELVAAITSGERTNYADSVKGRFTISRDNAKNTVYLQMNSLKPEDTAVYYCATKRWWGRYDYWGQGTQVTVSS | high polyreactivity
QVQLVESGGCLVQAGGTLRLSCAASGRIFVSYVMGWYSQAPGKEREFVAAIRRSGSSTYYADSVKGRFTISRDNEKNTVYLQMNSLKPEDTAVFYCAAYQRSRTLRRYDYWGQGTEVTVSS | high polyreactivity
QVQLVESGGCLVQARGSLRLSCASSGRMISYNAMGWYRQRPGKDMELGAAINSSGGSTYDADSVKGRFTISRDNAKNTVSLQMNSLKAEDTAFYYCNVLHIPSTTMDYWPQGTQVTVSS | high polyreactivity
QVQLVESGGDLVQAGGSLRLSCAASGSIFCYYVMGWYRQAPGKERELVAAITVSGAGTYNADSVKGRFTISRDNAKNTVYLQMNSLKPEDTAVYYCAARWLGHFYPFFLQGLSGFDYWGQGTQVTVSS | low polyreactivity
QVQLVESGGGFDQAGGSLRLSCAASGITFYDNVMGSYIQAPGKERELVAAITSGGSTNYSDSVKGRFTISRANAKNTVYLQMNSLKPEDTAVYYCAATPYGIGYDYWGQGTEVTVSS | low polyreactivity
QVQLVESGGGFGQAGGSLRLSCAASGFTCGYYAMGWFRQAPGKERELVASISSRGGSTNYADSVKGRFTISRDHAKNTVYLQMNTMKPEDTAVYYCAAEYYRQRYEYDYWRQGTQVTVSS | high polyreactivity
